Experimental data reported in article PMC9658050.
Several values for one entry are separate records, joined by “and”; a condition that tells them apart may be missing. Identical values can stand only once.

Assays:
[1] = molecular target: Full-length SARS-CoV-2 envelope (E) protein (SARS-CoV-2) (UniProt P0DTC4); assay: AUC
[2] = molecular target: His-tagged truncated SARS-CoV-2 E protein (residues 8-65) (SARS-CoV-2) (UniProt P0DTC4); assay: AUC

| Substance | Log10 Ka (monomers to pentamer) [1] | percent of the sample as pentamers [1] [%] | stoichiometry N [1] | Log10 Ka (monomers to pentamer) [2] | percent of the sample as trimers [2] [%] | stoichiometry N [2] |
| --- | --- | --- | --- | --- | --- | --- |
| Full-length SARS-CoV-2 envelope (E) protein (from UniProt P0DTC4 1-75) (natural protein) | 17.4 | 80 | 3 and 5 |  |  |  |
| His-tagged truncated SARS-CoV-2 E protein (residues 8-65) (from UniProt P0DTC4 8-65) (domain or fragment) |  |  |  | 16 | 60 | 3 |
